These are literature values, as cited in publication PMC6705211.

Where two headings read alike, the source gives them in different places.

For data set [1], the target named is H3K9me3 (UniProt P68431).
Data set [2] deals with H3K9me3 (UniProt P68431). The source holds these as a separate data set.
In data set [3] the target is H3K9me3 (UniProt P68431). This is another data set of the same source.
Data set [4] deals with H3K9me3 (UniProt P68431). The source holds these as a separate data set.

Sequence of HP1α chromodomain (P45973 20-78): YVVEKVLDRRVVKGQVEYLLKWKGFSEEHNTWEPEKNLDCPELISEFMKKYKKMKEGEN
Sequence of HP1a chromodomain (P05205 24-82): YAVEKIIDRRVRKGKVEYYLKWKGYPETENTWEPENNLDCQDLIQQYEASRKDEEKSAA
Sequence of HP1β (P83916 whole entry): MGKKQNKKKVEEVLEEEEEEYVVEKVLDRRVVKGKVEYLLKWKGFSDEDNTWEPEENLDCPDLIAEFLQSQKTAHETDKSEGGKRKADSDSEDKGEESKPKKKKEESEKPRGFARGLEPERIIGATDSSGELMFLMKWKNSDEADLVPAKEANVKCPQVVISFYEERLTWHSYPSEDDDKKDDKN
Sequence of HP1γ (Q13185 2-183): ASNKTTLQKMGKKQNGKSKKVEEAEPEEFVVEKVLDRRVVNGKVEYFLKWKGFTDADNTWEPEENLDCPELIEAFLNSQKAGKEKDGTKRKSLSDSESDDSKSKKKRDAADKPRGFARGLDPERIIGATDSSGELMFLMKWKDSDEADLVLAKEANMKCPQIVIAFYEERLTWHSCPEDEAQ

HP1a chromodomain (from UniProt P05205): the Kd with H3K9me3 [1] was 4 µM.

HP1α chromodomain (from UniProt P45973): the Kd with H3K9me3 [2] was 13 µM.

On to HP1β (from UniProt P83916), for which the Kd with H3K9me3 [3] was 3 µM.

Consider HP1γ (from UniProt Q13185), for which, in the data set with H3K9me3 [4], the Kd was 7 µM.

For orientation: Kd means a measure of binding affinity in units of concentration.
